{"source": "patent US20140017212", "experiment_in_all_cases": "cell_activity", "key": {"TALEN 102263": {"test_system": "TALEN 102263", "conditions": "C63, with 102261, HepG2-C3a"}, "ZFN SBS35426": {"test_system": "ZFN SBS35426", "conditions": "Cel-I, paired with 35480"}, "ZFN SBS35428": {"test_system": "ZFN SBS35428", "conditions": "Cel-I, paired with 35480"}, "TALEN 102259": {"test_system": "TALEN 102259"}, "TALEN 102267": {"test_system": "TALEN 102267"}, "TALEN 102260": {"test_system": "TALEN 102260"}, "TALEN 102269": {"test_system": "TALEN 102269", "conditions": "C17, with 102271, HepG2-C3a"}, "TALEN 102258": {"test_system": "TALEN 102258"}, "ZFN SBS35458": {"test_system": "ZFN SBS35458", "conditions": "Cel-I, paired with 35428; 10 and 7% with 35426 in HepG2-C3a (Table 10)"}, "ZFN SBS35480": {"test_system": "ZFN SBS35480", "conditions": "Cel-I, paired with 35426"}, "TALEN 102265": {"test_system": "TALEN 102265"}, "TALEN 102249": {"test_system": "TALEN 102249"}, "ZFN SBS33940": {"test_system": "ZFN SBS33940", "conditions": "HepG2-C3a, paired with 34931"}, "TALEN 102252": {"test_system": "TALEN 102252"}, "ZFN SBS34931": {"test_system": "ZFN SBS34931", "conditions": "HepG2-C3a, paired with 33940"}, "TALEN 102255": {"test_system": "TALEN 102255"}, "TALEN 102250": {"test_system": "TALEN 102250"}, "ZFN SBS35361": {"test_system": "ZFN SBS35361", "conditions": "Cel-I, paired with 35396; 31 and 29% in HepG2-C3a (Table 10)"}, "ZFN SBS35364": {"test_system": "ZFN SBS35364", "conditions": "Cel-I, paired with 35394"}, "ZFN SBS35370": {"test_system": "ZFN SBS35370", "conditions": "Cel-I, paired with 35405"}, "ZFN SBS35379": {"test_system": "ZFN SBS35379", "conditions": "Cel-I, paired with 35393"}, "TALEN 102266": {"test_system": "TALEN 102266", "conditions": "C17, with 102268, HepG2-C3a"}, "ZFN SBS35393": {"test_system": "ZFN SBS35393", "conditions": "Cel-I, paired with 35370"}, "ZFN SBS35394": {"test_system": "ZFN SBS35394", "conditions": "Cel-I, paired with 35364"}, "ZFN SBS35396": {"test_system": "ZFN SBS35396", "conditions": "Cel-I, paired with 35361; 31 and 29% in HepG2-C3a (Table 10)"}, "ZFN SBS35398": {"test_system": "ZFN SBS35398", "conditions": "Cel-I, paired with 35361"}, "ZFN SBS35399": {"test_system": "ZFN SBS35399", "conditions": "Cel-I, paired with 35361"}, "ZFN SBS35405": {"test_system": "ZFN SBS35405", "conditions": "Cel-I, paired with 35370"}, "TALEN 102257": {"test_system": "TALEN 102257"}, "TALEN 102264": {"test_system": "TALEN 102264", "conditions": "C63, with 102261, HepG2-C3a"}, "TALEN 102268": {"test_system": "TALEN 102268"}, "TALEN 102261": {"test_system": "TALEN 102261", "conditions": "C63, with 102264, HepG2-C3a"}, "TALEN 102256": {"test_system": "TALEN 102256"}, "TALEN 102251": {"test_system": "TALEN 102251", "conditions": "C17, with 102249, HepG2-C3a"}, "TALEN 102262": {"test_system": "TALEN 102262", "conditions": "C63, with 102264, HepG2-C3a"}, "TALEN 102271": {"test_system": "TALEN 102271", "conditions": "C17, with 102269, HepG2-C3a"}, "TALEN 102253": {"test_system": "TALEN 102253"}, "TALEN 102254": {"test_system": "TALEN 102254"}}, "data": [{"sequence": "CTAATACTCTTTTAGTGTCT (double strand) [102263 site]", "values": [{"measurement": "activity (% modification)", "setting": "TALEN 102263", "value": 16}]}, {"sequence": "TTGTGGTTTTTAAATAAAGCATAGTGCA (double strand) [locus 3 left site]", "values": [{"measurement": "activity (% mutated targets)", "setting": "ZFN SBS35426", "value": 7}, {"measurement": "activity (% mutated targets)", "setting": "ZFN SBS35428", "value": 6}]}, {"sequence": "ATTTATGAGATCAACAGCACA (double strand) [102259 site]", "values": [{"measurement": "activity (% modification)", "setting": "TALEN 102259; C17, with 102257, HepG2-C3a", "value": 18}, {"measurement": "activity (% modification)", "setting": "TALEN 102259; C63, with 102257, HepG2-C3a", "value": 15}]}, {"sequence": "ATATTGGGCTCTGATTCCTAC (double strand) [102267 site]", "values": [{"measurement": "activity (% modification)", "setting": "TALEN 102267; C17, with 102265, HepG2-C3a", "value": 47}, {"measurement": "activity (% modification)", "setting": "TALEN 102267; C63, with 102265, HepG2-C3a", "value": 9.8}]}, {"sequence": "CTATTTATGAGATCAACAGCA (double strand) [102260 site]", "values": [{"measurement": "activity (% modification)", "setting": "TALEN 102260; C17, with 102258, HepG2-C3a", "value": 24}, {"measurement": "activity (% modification)", "setting": "TALEN 102260; C63, with 102257, HepG2-C3a", "value": 13}]}, {"sequence": "TTTTTCTGTAGGAATCAGA (double strand) [102269 site]", "values": [{"measurement": "activity (% modification)", "setting": "TALEN 102269", "value": 14}]}, {"sequence": "CTATGCTTTATTTAAAAACCA (double strand) [102258 site]", "values": [{"measurement": "activity (% modification)", "setting": "TALEN 102258; C17, with 102260, HepG2-C3a", "value": 24}, {"measurement": "activity (% modification)", "setting": "TALEN 102258; C63, with 102260, HepG2-C3a", "value": 11}]}, {"sequence": "CCTGTGCTGTTGATCTCATAAATAGAAC (double strand) [locus 3 right site]", "values": [{"measurement": "activity (% mutated targets)", "setting": "ZFN SBS35458", "value": 4.9}, {"measurement": "activity (% mutated targets)", "setting": "ZFN SBS35480", "value": 7}]}, {"sequence": "ATAATTGAACATCATCCTG (double strand) [102265 site]", "values": [{"measurement": "activity (% modification)", "setting": "TALEN 102265; C17, with 102267, HepG2-C3a", "value": 47}, {"measurement": "activity (% modification)", "setting": "TALEN 102265; C63, with 102267, HepG2-C3a", "value": 9.8}]}, {"sequence": "GTTGAAGATTGAATTCATA (double strand) [102249 site]", "values": [{"measurement": "activity (% modification)", "setting": "TALEN 102249; C17, with 102251, HepG2-C3a", "value": 15}, {"measurement": "activity (% modification)", "setting": "TALEN 102249; C63, with 102252, HepG2-C3a", "value": 8.3}]}, {"sequence": "CTGTTGATAGACACTAAAAGAGTATTAG (double strand) [33940 site]", "values": [{"measurement": "activity (% modification)", "setting": "ZFN SBS33940", "value": 7.3}]}, {"sequence": "ATAGTGCAATGGATAGGTC (double strand) [102252 site]", "values": [{"measurement": "activity (% modification)", "setting": "TALEN 102252; C17, with 102250, HepG2-C3a", "value": 32}, {"measurement": "activity (% modification)", "setting": "TALEN 102252; C63, with 102249, HepG2-C3a", "value": 8.3}]}, {"sequence": "ACCAAGAAGACAGACTAAAATGAAAATA (double strand) [34931 site]", "values": [{"measurement": "activity (% modification)", "setting": "ZFN SBS34931", "value": 7.3}]}, {"sequence": "ATAAAGCATAGTGCAATGGAT (double strand) [102255 site]", "values": [{"measurement": "activity (% modification)", "setting": "TALEN 102255; C17, with 102254, HepG2-C3a", "value": 43}, {"measurement": "activity (% modification)", "setting": "TALEN 102255; C63, with 102253, HepG2-C3a", "value": 21}]}, {"sequence": "GTTGAAGATTGAATTCATAAC (double strand) [102250 site]", "values": [{"measurement": "activity (% modification)", "setting": "TALEN 102250; C17, with 102252, HepG2-C3a", "value": 32}, {"measurement": "activity (% modification)", "setting": "TALEN 102250; C63, with 102252, HepG2-C3a", "value": 8}]}, {"sequence": "TTTGGGATAGTTATGAATTCAATCTTCA (double strand) [locus 2 left site]", "values": [{"measurement": "activity (% mutated targets)", "setting": "ZFN SBS35361", "value": 25}, {"measurement": "activity (% mutated targets)", "setting": "ZFN SBS35364", "value": 24}, {"measurement": "activity (% mutated targets)", "setting": "ZFN SBS35370", "value": 23}, {"measurement": "activity (% mutated targets)", "setting": "ZFN SBS35379", "value": 21}]}, {"sequence": "ATAATTGAACATCATCCTGAG (double strand) [102266 site]", "values": [{"measurement": "activity (% modification)", "setting": "TALEN 102266", "value": 10}]}, {"sequence": "CCTATCCATTGCACTATGCTTTATTTAA (double strand) [locus 2 right site]", "values": [{"measurement": "activity (% mutated targets)", "setting": "ZFN SBS35393", "value": 21}, {"measurement": "activity (% mutated targets)", "setting": "ZFN SBS35394", "value": 24}, {"measurement": "activity (% mutated targets)", "setting": "ZFN SBS35396", "value": 25}, {"measurement": "activity (% mutated targets)", "setting": "ZFN SBS35398", "value": 22}, {"measurement": "activity (% mutated targets)", "setting": "ZFN SBS35399", "value": 23}, {"measurement": "activity (% mutated targets)", "setting": "ZFN SBS35405", "value": 23}]}, {"sequence": "CTATGCTTTATTTAAAAAC (double strand) [102257 site]", "values": [{"measurement": "activity (% modification)", "setting": "TALEN 102257; C17, with 102259, HepG2-C3a", "value": 18}, {"measurement": "activity (% modification)", "setting": "TALEN 102257; C63, with 102259, HepG2-C3a", "value": 15}]}, {"sequence": "ATCTAATACTCTTTTAGTGTC (double strand) [102264 site]", "values": [{"measurement": "activity (% modification)", "setting": "TALEN 102264", "value": 22}]}, {"sequence": "ATATTGGGCTCTGATTCCT (double strand) [102268 site]", "values": [{"measurement": "activity (% modification)", "setting": "TALEN 102268; C17, with 102266, HepG2-C3a", "value": 10}, {"measurement": "activity (% modification)", "setting": "TALEN 102268; C63, with 102265, HepG2-C3a", "value": 7.9}]}, {"sequence": "TTCATTTTAGTCTGTCTTCTT (double strand) [102261 site]", "values": [{"measurement": "activity (% modification)", "setting": "TALEN 102261", "value": 22}]}, {"sequence": "ATAAAGCATAGTGCAATGG (double strand) [102256 site]", "values": [{"measurement": "activity (% modification)", "setting": "TALEN 102256; C17, with 102254, HepG2-C3a", "value": 28}, {"measurement": "activity (% modification)", "setting": "TALEN 102256; C63, with 102253, HepG2-C3a", "value": 23}]}, {"sequence": "GTGCAATGGATAGGTCTTT (double strand) [102251 site]", "values": [{"measurement": "activity (% modification)", "setting": "TALEN 102251", "value": 15}]}, {"sequence": "ATTTTAGTCTGTCTTCTTG (double strand) [102262 site]", "values": [{"measurement": "activity (% modification)", "setting": "TALEN 102262", "value": 17}]}, {"sequence": "TTATGCATTTGTTTCAAAA (double strand) [102271 site]", "values": [{"measurement": "activity (% modification)", "setting": "TALEN 102271", "value": 14}]}, {"sequence": "ATTGAATTCATAACTATCC (double strand) [102253 site]", "values": [{"measurement": "activity (% modification)", "setting": "TALEN 102253; C17, with 102255, HepG2-C3a", "value": 38}, {"measurement": "activity (% modification)", "setting": "TALEN 102253; C63, with 102256, HepG2-C3a", "value": 23}]}, {"sequence": "ATTGAATTCATAACTATCCCA (double strand) [102254 site]", "values": [{"measurement": "activity (% modification)", "setting": "TALEN 102254; C17, with 102255, HepG2-C3a", "value": 43}, {"measurement": "activity (% modification)", "setting": "TALEN 102254; C63, with 102256, HepG2-C3a", "value": 16}]}]}
